Laboratory results: PMC5245964 (eLife, 2017)

Molecular target: T1, Mis18α:Mis18β complex (insect-cell-expressed) (human, UniProt Q9NYP9 1-233; O43482 1-229)
T1 construct: Mis18α, human, the CDS of Mis18α; codon-optimized cDNA (GeneArt); Mis18β, human, the CDS of Mis18β; pre-formed complex used as one partner in pull-downs and reconstitution; also called Mis18α:Mis18β hexamer; source: Tnao38 insect cells, baculovirus co-expression, purified (Ni resin, His-TEVp cleavage, SEC); not shown: His6, N-terminal, cleaved; copies: 4 + 2
Experiment: pull-down; MBP-tagged M18BP1 variant held on amylose resin, Mis18α:Mis18β in solution; proteins 3 μM, buffer HST300 (30 mM HEPES pH 7.5, 300 mM NaCl, 1 mM TCEP), 4°C, 30 min; CBB-stained Tricine–SDS-PAGE
Details: both partners purified

T1 sequence (Q9NYP9 whole entry, chain 1 of 2): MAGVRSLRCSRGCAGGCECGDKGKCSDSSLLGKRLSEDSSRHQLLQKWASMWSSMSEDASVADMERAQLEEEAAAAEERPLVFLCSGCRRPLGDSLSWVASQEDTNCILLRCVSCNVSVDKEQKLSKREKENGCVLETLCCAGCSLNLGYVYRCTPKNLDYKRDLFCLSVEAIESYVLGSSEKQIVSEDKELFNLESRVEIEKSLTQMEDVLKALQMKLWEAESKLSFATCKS
T1 sequence (O43482 whole entry, chain 2 of 2): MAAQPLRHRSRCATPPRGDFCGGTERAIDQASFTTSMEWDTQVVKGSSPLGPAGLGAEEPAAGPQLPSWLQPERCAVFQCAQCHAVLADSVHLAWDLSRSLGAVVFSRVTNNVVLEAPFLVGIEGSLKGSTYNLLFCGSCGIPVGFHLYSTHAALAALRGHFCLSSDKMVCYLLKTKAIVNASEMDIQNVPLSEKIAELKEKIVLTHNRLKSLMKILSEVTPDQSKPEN

- binding result: binds
B1: MBP-M18BP1^61–140/S110A-8His (domain or fragment, human, UniProt Q6P0N0 61-140, looked up)
chain: NQFLKMTTFNNKNIFQSTMLTEATTSNSSLDISAIKPNKDGLKNKANYEAPGKIFLRMKEKVLRDKQEQPSRNSSLLEPQ
notes: M18BP1 (KNL2), human, residues 61-140; also tested after CDK1:Cyclin B1 treatment; Ser110 is the only major site of 61-140, so no separate molecule was made; source: E. coli BL21-CodonPlus(DE3)-RIL, purified (Ni resin); not shown: MBP, N-terminal, kept; His8, C-terminal, kept
